Measured values taken from US20160176955A1 (LEIDOS, published 2016).

B1: peptide 10 (amino acids 91-106 of CSP) (peptide)
peptide: HKKLKQPADGNPDP
B2: peptide 8 (amino acids 71-85 of CSP) (peptide)
peptide: SLGENDDGNNEDNEK
B3: monoclonal antibody (mAb) 5D5 (antibody, V domains shown)
VH: QVHLQQSGGEVARPGASVKLSCKASGYTFTGYGLSWVKQRTGQGLEWIGEIYPRSGNTYYNEKFKGKATLTADKSSSTAYMELRSLTSEDSAVYFCARSWGNSSFVYWGQGTLVTVSA
VL: SIVMTQTPKFLLVSAGDRVTITCKASQSVTNDVTWYQQKPGQSPKLLIYYASNRYTGVPDRFTGSGYGTDFTFTISTVQAEDLAVYFCQQDYSSPFTFGSGTKLEIKR
notes: Murine IgG1/kappa hybridoma antibody; also called 5D5 mAb; MRA-1242

Experiments:
[1] = molecular target: B3; assay: competitive ELISA, competitor against rCSP for binding to mAb 5D5; row 0.001 µg/ml
[2] = molecular target: B3; assay: competitive ELISA, competitor against rCSP for binding to mAb 5D5; row 0.01 µg/ml
[3] = molecular target: B1; assay: indirect ELISA, 15-mer peptide mapping
[4] = molecular target: B2; assay: indirect ELISA, 15-mer peptide mapping

## PKHKKLKQPAD [peptide E]
[1]
  ELISA signal (name and unit not given): 0.925
[2]
  ELISA signal (name and unit not given): 3.39

## LRKPKHKKLKQ [peptide D]
[1]
  ELISA signal (name and unit not given): 0.989
[2]
  ELISA signal (name and unit not given): 3.45

## DGNNEDNEK [peptide A]
[1]
  ELISA signal (name and unit not given): 1.05
[2]
  ELISA signal (name and unit not given): 3.57

## B1
[1]
  ELISA signal (name and unit not given): 0.92
[2]
  ELISA signal (name and unit not given): 3.34

## NEKLRKPKHK [peptide C]
[1]
  ELISA signal (name and unit not given): 0.976
[2]
  ELISA signal (name and unit not given): 3.49

## B2
[1]
  ELISA signal (name and unit not given): 0.952
[2]
  ELISA signal (name and unit not given): 3.35

## B3
[3]
  binding result: no binding
[4]
  binding result: no binding

## EDNEKLRKPKHKKLK [peptide 9 (amino acids 81-95 of CSP)]
[1]
  ELISA signal (name and unit not given): 0.19
[2]
  ELISA signal (name and unit not given): 0.246

## NEDNEKLRK [peptide B]
[1]
  ELISA signal (name and unit not given): 1.03
[2]
  ELISA signal (name and unit not given): 3.51
